The data set concerns MS2 coat protein. Put plainly: apparent KD of MS2 coat protein; designed switch direction (-1 OFF switch, 1 ON switch): 1; higher = weaker reporter binding. The gist of the method: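 Designed RNA switches were transcribed on Illumina chips by stalled E. coli RNA polymerase and titrated with SNAP-549-labelled MS2 coat protein from 0.7 or 1.5 nM, doubling to 3 µM. Step length ran from 0.8–1.5 h at the lowest concentration to 10–20 min at the highest. The apparent KD is the median over clusters for each design, from curve-fitted normalised cluster fluorescence.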

Setting [1] is: input ligand: microRNA oligo, concentration not stated.
Setting [2] is: Eterna round: R95, input ligand: FMN 200 uM.
The mark [3] stands for this setting: Eterna round: R95, input ligand: microRNA oligo, concentration not stated.
Where [4] appears, read: Eterna round: R95, input ligand: none.

With “GUACAGAUCACAGGAUAUCACGUCGAUUAGACGUGAGAAGGGUGAUCACACAUGAAUAUUAAUACAUGAGGAUCACCCAUGUAC [SSNG1/16-A2] (Eterna round: R96, puzzle: Same State NG 1)”, the “apparent KD of MS2 coat protein” value reads like this: (input ligand: FMN 200 uM) 65.6 nM; under setting [1], 22.5 nM; (input ligand: none) 30.6 nM.
Turning to “GUAGCAUACCGAGGAUAUUCAUAACAUGAGGAUCACCCAUGUAUUAGGCCACAUUAGUGGCCUUGGGAGAAGGCGGAAUGCUAC [Xeonanis - 20 Mod45] (Eterna round: R96, puzzle: Same State NG 2)”, the “apparent KD of MS2 coat protein” value reads like this: (input ligand: FMN 200 uM) 12.1 nM; under setting [1], 11.9 nM; (input ligand: none) 16.9 nM.
Take “GUAGCAUACCGAGGAUAUUCAUAACAUGAGGAUCACCCAUGUUAGGCCAGCAUUAGCUGGCCUUGGGAGAAGGCGGAAUGCUAC [Xeonanis - 20 Mod52] (Eterna round: R96, puzzle: Same State NG 2)”: the “apparent KD of MS2 coat protein” value (input ligand: FMN 200 uM) was found to be 17.5 nM, the “apparent KD of MS2 coat protein” value under setting [1] is 14.5 nM and the “apparent KD of MS2 coat protein” value (input ligand: none) was determined as 22.2 nM.
For the sequence “GUAGCAUACCGAGGAUAUUCAUAAUACAUGAGGAUCACCCAUGUUAAUAAUAGGCGAAAGCCUUGGGAGAAGGCGGAAUGCUAC [Xeonanis - 20 Mod69] (Eterna round: R96, puzzle: Same State NG 2)”, the “apparent KD of MS2 coat protein” value is, setting by setting: (input ligand: FMN 200 uM) 11.4 nM; under setting [1], 9.05 nM; (input ligand: none) 16.2 nM.
For “GUCCAACAUGAGGAUCACCCAUGUCGGGCGUGCACAGGAUAUCGCGCCGGGAAAGCCCAGCGAGAAGGGUGAUCGA [Atveinla] (puzzle: Same State 1)”, the “apparent KD of MS2 coat protein” value reads like this: under setting [2], 197 nM; under setting [3], 57.8 nM; under setting [4], 50.9 nM.
Consider “GUCGGACCGGAAGGAUAUAACGACUGGUGUUUUCACAUGAGGAUCACCCAUGUAUCUCUACCGUGUUAGAAGGUUCGGAGGAAU [Eternabot solution 49] (Eterna round: R96, puzzle: Same State NG 2)”, for which the “apparent KD of MS2 coat protein” value is, setting by setting: (input ligand: FMN 200 uM) 14.8 nM; under setting [1], 15.2 nM; (input ligand: none) 20.4 nM.
For “GUGCUCGUGUGAGGAUAUGCUUCCGGGUCGGCUGCAGAAGGUACUAUUAUACAUGAGGAUCACCCAUGUCGCUUUUCUCCGGUG [salish99_SSNG1_r04_917] (Eterna round: R96, puzzle: Same State NG 1)”, the “apparent KD of MS2 coat protein” value is 48.2 nM (input ligand: FMN 200 uM), 29.2 nM under setting [1] and 38.4 nM (input ligand: none).
Regarding “GUGGAGGAUUAAGGAUAUUGAAUACAUAUGUUUAACAUGAGGAUCACCCAUGUGGGUUGCGGUAUCGAGAAGGUAAAUUACUGG [salish99_SSNG2_r04_034] (Eterna round: R96, puzzle: Same State NG 2)”, the “apparent KD of MS2 coat protein” value (input ligand: FMN 200 uM) stood at 146 nM, the “apparent KD of MS2 coat protein” value under setting [1] amounted to 63.2 nM and the “apparent KD of MS2 coat protein” value (input ligand: none) came out at 117 nM.
Turning to “GUGGCACAUGAGGAUCACCCAUGUGGGUAGAACAUAGGAUAUCACCAACAAAAUACCCGGUGAGAAGGAUGAUGCC [Esanesdi] (puzzle: Same State 1)”, the “apparent KD of MS2 coat protein” value under setting [2] is 118 nM, the “apparent KD of MS2 coat protein” value under setting [3] came out at 121 nM and the “apparent KD of MS2 coat protein” value under setting [4] was 161 nM.
In the case of “GUGGUCAGACAUGAGGAUCACCCAUGUGGAAUAAAUAACACACAGGAUAUCGAAUAUAAAAUAUACGAGAAGGGUGGAUUGGUG (Eterna round: R96, puzzle: Same State NG 3)”, under setting [1], the “apparent KD of MS2 coat protein” value was 334 nM.
Consider “GUGGUCAGACAUGAGGAUCACCCAUGUGGAAUAAAUAACACACAGGAUAUGUAAUAUAAAAUAUAACAGAAGGGUGGAUUGGUG (Eterna round: R96, puzzle: Same State NG 3)”, for which, under setting [1], the “apparent KD of MS2 coat protein” value worked out at 213 nM.
As for “GUGGUCAGACAUGAGGAUCACCCAUGUGGAAUAAAUAACAGACAGGAUAUUUAAUAUAGGAUAUAAAAGAAGGGUCGAUUGGUG (Eterna round: R96, puzzle: Same State NG 3)”, the “apparent KD of MS2 coat protein” value is, setting by setting: (input ligand: FMN 200 uM) 110 nM; under setting [1], 98.9 nM; (input ligand: none) 116 nM.
For the sequence “GUGGUCAGACAUGAGGAUCACCCAUGUGGAAUAAAUAACGUACAGGAUAUUGAAUAUAGGAUAUACAAGAAGGGUAGAUUGGUG (Eterna round: R96, puzzle: Same State NG 3)”, the “apparent KD of MS2 coat protein” value by setting is: (input ligand: FMN 200 uM) 167 nM; under setting [1], 115 nM; (input ligand: none) 127 nM.
For the sequence “GUGGUCAGACAUGAGGAUCACCCAUGUGGAAUAAAUAAGGACUAGGAUAUGUAAUAUAGGAUAUAACAGAAGGAGUGGUUGGUG (Eterna round: R96, puzzle: Same State NG 3)”, the “apparent KD of MS2 coat protein” value stood at 66.8 nM (input ligand: FMN 200 uM), 42.1 nM under setting [1] and 60.2 nM (input ligand: none).
In the case of “GUGGUCAGACAUGAGGAUCACCCAUGUGGAAUAAAUAAGGAGAAGGAUAUGCAAUAUAGGAUAUAGCAGAAGGUUUGGUUGGUG (Eterna round: R96, puzzle: Same State NG 3)”, the “apparent KD of MS2 coat protein” value under setting [1] amounted to 69.6 nM.
As for “GUGGUGGGUUGAGGAUAUUGGUUGCAUAUGUUUAACAUGAGGAUCACCCAUGUGGGUUGCGGUUUCGAGAAGGUAGGUUGCUGG [salish99_SSNG2_r04_045bad] (Eterna round: R96, puzzle: Same State NG 2)”, the “apparent KD of MS2 coat protein” value runs as follows: (input ligand: FMN 200 uM) 112 nM; under setting [1], 106 nM; (input ligand: none) 112 nM.
On to “GUUAAGAACUAAGGAUAUUGAAUACAUAUGUUUAACAUGAGGAUCACCCAUGUGGGUUGCGGUAUCGAGAAGGUAGAAUAAUAG [Mat - same State NG 2 - JL mod - D93] (Eterna round: R96, puzzle: Same State NG 2)”, for which the “apparent KD of MS2 coat protein” value under setting [1] was determined as 89.8 nM.
As for “GUUACAUGAGGAUCACCCAUGUAUGUGUGGGAGUAAGUGUCUUAGGAUAUCUAUCAUUUAAUGUAAGAGAAGGAAGAUUGUUGU [JMF's solution 97] (Eterna round: R96, puzzle: Same State NG 3)”, the “apparent KD of MS2 coat protein” value was 122 nM (input ligand: FMN 200 uM), 106 nM under setting [1] and 118 nM (input ligand: none).
“GUUACAUGAGGAUCACCCAUGUAUGUGUGGGAGUAAGUGUCUUAGGAUAUCUAUCAUUUAAUUAAAGAGAAGGAAGAUUGUUGU [JMF's solution 98] (Eterna round: R96, puzzle: Same State NG 3)”: the “apparent KD of MS2 coat protein” value came to 86.9 nM (input ligand: FMN 200 uM), 87.3 nM under setting [1] and 113 nM (input ligand: none).
For “GUUACAUGAGGAUCACCCAUGUAUGUGUGGGAGUAAGUGUCUUAGGAUAUCUAUUAUAUAAAUUAAGAGAAGGAAGAUUGUUGU [JMF's solution 16] (Eterna round: R96, puzzle: Same State NG 3)”, the “apparent KD of MS2 coat protein” value (input ligand: FMN 200 uM) is 126 nM, the “apparent KD of MS2 coat protein” value under setting [1] turned out to be 87.9 nM and the “apparent KD of MS2 coat protein” value (input ligand: none) amounted to 124 nM.
As to “GUUACAUGAGGAUCACCCAUGUAUGUGUGGGAGUAAGUGUCUUAGGAUAUCUAUUAUGUAAAUUAAGAGAAGGAAGAUUGUUGU [JMF's solution 17] (Eterna round: R96, puzzle: Same State NG 3)”, the “apparent KD of MS2 coat protein” value is, setting by setting: (input ligand: FMN 200 uM) 160 nM; under setting [1], 222 nM; (input ligand: none) 262 nM.

The values above are taken from the supplement of paper PMC9170038.
